In patent US20140234325A1 (ALBERT EINSTEIN COLLEGE OF MEDICINE, published 2014):

B1: mAb 20B1 (antibody, V domains shown)
VH: QIQLVQSGPELKKPGETVRISCKASGYIFTIAGIQWVQKMPGRGLRWIGWINTHSGVPEYAEEFKGRFAFSLETSARTAYLQISNLKDEDTATYFCARIYYGNNGGVMDYWGQGTSVTVSS
VL: DIQMTQSPSSLSASLGERVSLTCRASQEISDYLTWLQQKPDGTIKRLIYVASSLDSGVPKRFSGSRSGSDYSLTISSLESEDFADYYCLQYANYPWTFGGGTKLEIR
B2: mAb 14G8 (antibody, V domains shown)
VH: EVQLLESGGGLVQPGGSLKLSCATSGFTFSAYGLSWVRQTPERRLEWVASISGGGSVYYPDSVKGRFTISRDTAGDILFLQMNSLRSEDSAIYYCVRDLYGDYVGRYAYWGQGTLVIVSA
VL: DIVMTQSPATLSVTPGDRVSLSCRASQSIGDYLHWYQQKSHESPRLLINYASQSISGIPSRFSGSGSGSDFTLIINSVEPEDVGVYYCQNGHSFPYTFGGGTKLEIR
B3: mAb 6D3 (antibody, V domains shown)
VH: QVQLQQSGAELVKPGASVKLSCKASGYTFTSHWMHWVKQRPGQGLEWIGEIDPSDSYINYNQIFEGKATLTVDKSSTTAYLQLSSLTSEDSAVYYCARTAGLLAPMDYWGQGTSVTVSS
VL: DIVMTQSPSSLTVTAGEKVTMTCKSSQSLFNSGNQKNFLTWYQQIPGQPPKLLIYWASTRDSGVPDRFTGSGSGTDFTLTISSVQAEDLAVYYCQNDYTYPLTFGVGTKLELK

These binders were tested against T1, toxic shock syndrome toxin-1 (TSST-1) (Staphylococcus aureus, UniProt P06886 41-234) (assay: Western blot with purified toxin).
T1 sequence: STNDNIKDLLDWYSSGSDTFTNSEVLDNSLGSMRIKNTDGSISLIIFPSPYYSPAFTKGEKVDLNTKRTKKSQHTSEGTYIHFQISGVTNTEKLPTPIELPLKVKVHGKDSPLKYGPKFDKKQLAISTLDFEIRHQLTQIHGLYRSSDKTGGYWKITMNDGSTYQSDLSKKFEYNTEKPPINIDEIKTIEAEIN
B1: no binding. B2: no binding. B3: no binding.

What follows are binders tested against T2, staphylococcal enterotoxin A (SEA) (Staphylococcus aureus, UniProt P0A0L1 25-257) (assay: Western blot with purified toxin).
T2 sequence: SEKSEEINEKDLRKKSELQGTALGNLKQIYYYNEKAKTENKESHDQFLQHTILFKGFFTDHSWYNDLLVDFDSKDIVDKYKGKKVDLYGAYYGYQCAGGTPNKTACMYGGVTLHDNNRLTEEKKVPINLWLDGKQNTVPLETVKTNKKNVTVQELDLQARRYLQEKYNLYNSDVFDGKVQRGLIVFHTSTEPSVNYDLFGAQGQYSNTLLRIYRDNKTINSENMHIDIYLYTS
B1: no binding. B2: no binding. B3: no binding.
